US20030077226

T1: synthetic peptide substrate containing the Swedish KM→NL mutation (SEVNLDAEFR)
T1 chain: SEVNLDAEFR

T2: synthetic peptide substrate containing the wild-type APP β-secretase site (SEVKMDAEFR)
T2 chain: SEVKMDAEFR

B1: Recombinant human Asp2(a) prepared in CHO cells (protein)
chain: ETDEEPEEPGRRGSFVEMVDNLRGKSGQGYYVEMTVGSPPQTLNILVDTGSSNFAVGAAPHPFLHRYYQRQLSSTYRDLRKGVYVPYTQGKWEGELGTDLVSIPHGPNVTVRANIAAITESDKFFINGSNWEGILGLAYAEIARPDDSLEPFFDSLVKQTHVPNLFSLHLCGAGFPLNQSEVLASVGGSMIIGGIDHSLYTGSLWYTPIRREWYYEVIIVRVEINGQDLKMDCKEYNYDKSIVDSGTTNLRLPKKVFEAAVKSIKAASSTEKFPDGFWLGEQLVCWQAGTTPWNIFPVISLYLMGEVTNQSFRITILPQQYLRPVEDVATSQDDCYKFAISQSSTGTVMGAVIMEGFYVVFDRARKRIGFAVSACHVHDEFRTAAVEGPFVTLDMEDCGYNIPQTDESTLMTIAYVMAAICALFMLPLCLMVCQWRCLRCLRQQHDDFADDISLLK
B2: Hu-Asp2(b) expressed in CHO cells (protein)
chain: TQHGIRLPLRSGLGGAPLGLRLPRETDEEPEEPGRRGSFVEMVDNLRGKSGQGYYVEMTVGSPPQTLNILVDTGSSNFAVGAAPHPFLHRYYQRQLSSTYRDLRKGVYVPYTQGKWEGELGTDLVSIPHGPNVTVRANIAAITESDKFFINGSNWEGILGLAYAEIARLCGAGFPLNQSEVLASVGGSMIIGGIDHSLYTGSLWYTPIRREWYYEVIIVRVEINGQDLKMDCKEYNYDKSIVDSGTTNLRLPKKVFEAAVKSIKAASSTEKFPDGFWLGEQLVCWQAGTTPWNIFPVISLYLMGEVTNQSFRITILPQQYLRPVEDVATSQDDCYKFAISQSSTGTVMGAVIMEGFYVVFDRARKRIGFAVSACHVHDEFRTAAVEGPFVTLDMEDCGYNIPQTDESTLMTIAYVMAAICALFMLPLCLMVCQWRCLRCLRQQHDDFADDISLLK

Legend:
[1] = target: T1, synthetic peptide substrate containing …
[2] = target: T2, synthetic peptide substrate containing …

| Protein | proteolysis of peptide substrate (percent hydrolysis by RP-HPLC), Swedish peptide against wild type after 6 hours [1] | proteolysis of peptide substrate (percent hydrolysis by RP-HPLC) [2] | proteolysis of peptide substrate (RP-HPLC) [1] |
| --- | --- | --- | --- |
| B1 | about 10-fold higher than wild type APP | Maximal proteolysis was seen with the Swedigh β-secretase peptide, which, after 6 hours, was about 10-fold higher than wild type APP |  |
| B2 |  |  | also cleaves the Swedish β-secretase peptide in proteolysis assays using identical assay conditions |
